Laboratory results reported in PMC6610666, “E2F4 regulates transcriptional activation in mouse embryonic stem cells independently of the RB family” (Nature Communications, 2019).

Target: mouse CBP TAZ1 (residues 340-439) (mouse, UniProt P45481 340-439)
Experiment: ITC; MicroCal VP-ITC; E2F4 TAD (300 uM) titrated into TAZ1 (30 uM) at 25 C; 25 mM HEPES pH 7.0, 200 mM NaCl, 5% glycerol v/v; E2F4 concentration adjusted such that N was close to 1
Conditions: both partners purified

Sequence of mouse CBP TAZ1 (residues 340-439) (P45481 340-439): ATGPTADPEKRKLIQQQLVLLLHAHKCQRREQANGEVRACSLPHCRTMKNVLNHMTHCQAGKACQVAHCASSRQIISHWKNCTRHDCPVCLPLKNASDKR

binding result: binds
B1: human E2F4 transactivation domain (residues 390-407) (domain or fragment, UniProt Q16254 390-407, looked up)
chain: HDYIYNLDESEGVCDLFD
notes: also called E2F4 TAD; E2F4 peptide; source: E. coli, purified (GST fusion, Superdex-75)
